Consider 12 molecules from ChEMBL document CHEMBL4229465, “SIRT4 is the last puzzle of mitochondrial sirtuins” (Bioorg Med Chem, 2018).

Where a SMILES comes first, the peptide text is derived from it. The star is where a group is joined. ξ: configuration not given here. Biotin = O=C1N[C@H]2[C@H](CS[C@H]2CCCCC(=O)*)N1; Lipoyl(6ξ) = O=C(CCCCC1CCSS1)*; X2 = CC(O)(CC(=O)O)CC(=O)*; X1 = CC(C)(CC(=O)*)C(=O)O

In data set [1] the target is T1, NAD-dependent protein lipoamidase sirtuin-4, mitochondrial (Homo sapiens) (UniProt Q9Y6E7).
T1 sequence (whole entry): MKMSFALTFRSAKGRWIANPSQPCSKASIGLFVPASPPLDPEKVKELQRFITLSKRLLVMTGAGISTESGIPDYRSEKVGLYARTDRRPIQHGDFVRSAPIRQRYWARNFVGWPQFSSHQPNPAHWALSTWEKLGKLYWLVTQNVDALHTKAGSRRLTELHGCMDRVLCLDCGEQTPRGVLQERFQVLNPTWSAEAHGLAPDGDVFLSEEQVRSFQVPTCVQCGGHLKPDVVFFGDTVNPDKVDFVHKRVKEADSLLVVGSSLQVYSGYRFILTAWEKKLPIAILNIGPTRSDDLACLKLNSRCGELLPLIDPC
In words: Ratio of Kcat to Km at recombinant SIRT4 (unknown origin).

In data set [2] the target is T1, NAD-dependent protein lipoamidase sirtuin-4, mitochondrial (Homo sapiens). In words: Ratio of Kcat to Km at human N-terminal His6-tagged SIRT4 (25 to 314 residues) expressed in Escherichia coli codon plus (DE3).
The target in data set [3] is T2, NAD-dependent protein deacetylase sirtuin-2 (Homo sapiens) (UniProt Q8IXJ6).
T2 sequence (whole entry): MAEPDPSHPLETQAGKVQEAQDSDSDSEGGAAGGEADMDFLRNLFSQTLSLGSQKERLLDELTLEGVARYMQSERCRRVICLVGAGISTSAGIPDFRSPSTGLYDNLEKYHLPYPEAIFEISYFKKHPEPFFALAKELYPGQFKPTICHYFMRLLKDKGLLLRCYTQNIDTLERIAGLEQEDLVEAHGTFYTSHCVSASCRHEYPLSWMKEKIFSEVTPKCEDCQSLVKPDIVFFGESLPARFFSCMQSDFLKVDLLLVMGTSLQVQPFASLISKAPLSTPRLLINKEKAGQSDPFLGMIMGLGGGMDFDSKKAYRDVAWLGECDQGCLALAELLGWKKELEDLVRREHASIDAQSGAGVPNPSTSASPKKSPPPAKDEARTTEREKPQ
Description: Ratio of Kcat to Km at human SIRT2 (36 to 356 residues) expressed in Escherichia coli rosetta cells.

Substrate in data set [4]: CC(C)C[C@H](NC(=O)[C@@H](NC(=O)CN)C(C)C)C(=O)N[C@@H](CCCCNC(=O)CC(C)(O)CC(=O)O)C(=O)N[C@@H](CCC(=O)O)C(=O)N[C@@H](Cc1ccc(O)cc1)C(=O)NCC(=O)N[C@H](C(=O)O)C(C)C
Description: (§1) Activity at human N-terminal His6-tagged SIRT4 (25 to 314 residues) expressed in Escherichia coli codon plus (DE3).

Substrate in data set [5]: CC(=O)NCCCC[C@H](NC(=O)[C@H](CC(C)C)NC(=O)[C@@H](NC(=O)CN)C(C)C)C(=O)N[C@@H](CCC(=O)O)C(=O)N[C@@H](Cc1ccc(O)cc1)C(=O)NCC(=O)N[C@H](C(=O)O)C(C)C
The data set is described as §1.

Substrate in data set [6]: CC(C)C[C@H](NC(=O)[C@@H](NC(=O)CN)C(C)C)C(=O)N[C@@H](CCCCNC(=O)CCCCC1CCSS1)C(=O)N[C@@H](CCC(=O)O)C(=O)N[C@@H](Cc1ccc(O)cc1)C(=O)NCC(=O)N[C@H](C(=O)O)C(C)C
Described as §1.

Substrate in data set [7]: CC(C)C[C@H](NC(=O)[C@@H](NC(=O)CN)C(C)C)C(=O)N[C@@H](CCCCNC(=O)CC(C)(C)C(=O)O)C(=O)N[C@@H](CCC(=O)O)C(=O)N[C@@H](Cc1ccc(O)cc1)C(=O)NCC(=O)N[C@H](C(=O)O)C(C)C
The data set is described as §1.

Compound in data set [8]: C[C@H](NC(=O)[C@@H](NC(=O)[C@H](CCC(N)=O)NC(=O)[C@@H](N)CCCCN)[C@@H](C)O)C(=O)N[C@@H](CCCNC(=N)N)C(=O)N[C@@H](CCCCNC(=O)CCCCC1CCSS1)C(=O)N[C@@H](CO)C(=O)N[C@H](C(=O)NCC(=O)NCC(=O)O)[C@@H](C)O
In words: (§2) Activity at recombinant SIRT4 (unknown origin) in presence of NAD by LC-MS analysis. The note with it: Homo sapiens.

Compound in data set [9]: CC[C@H](C)[C@H](NC(=O)[C@@H](NC(=O)[C@H](C)NC(=O)[C@H](CCCCNC(=O)CCCCC1CCSS1)NC(=O)[C@H](CC(=O)O)NC(=O)[C@@H](NC(=O)[C@H](CCC(=O)O)NC(=O)[C@@H](NC(=O)[C@@H](N)CCC(=O)O)[C@@H](C)CC)[C@@H](C)O)[C@@H](C)O)C(=O)NCC(=O)O
Described as §2. As to conditions: Homo sapiens.

Compound in data set [10]: CC[C@H](C)[C@H](NC(=O)[C@@H](NC(=O)[C@H](C)NC(=O)[C@H](CCCCNC(C)=O)NC(=O)[C@H](CC(=O)O)NC(=O)[C@@H](NC(=O)[C@H](CCC(=O)O)NC(=O)[C@@H](NC(=O)[C@@H](N)CCC(=O)O)[C@@H](C)CC)[C@@H](C)O)[C@@H](C)O)C(=O)NCC(=O)O
The data set is described as §2. The note with it: Homo sapiens.

Compound in data set [11]: CC(=O)NCCCC[C@H](NC(=O)[C@H](CCCNC(=N)N)NC(=O)[C@H](C)NC(=O)[C@@H](NC(=O)[C@H](CCC(N)=O)NC(=O)[C@@H](N)CCCCN)[C@@H](C)O)C(=O)N[C@@H](CO)C(=O)N[C@H](C(=O)NCC(=O)NCC(=O)O)[C@@H](C)O
The description is as §2. As to conditions: Homo sapiens.

Compound in data set [12]: CC[C@H](C)[C@H](NC(=O)[C@H](CC(N)=O)NC(=O)[C@H](CCCCNC(C)=O)NC(=O)[C@H](CO)NC(=O)CNC(=O)[C@H](CC(C)C)NC(=O)[C@H](Cc1ccc(O)cc1)NC(=O)[C@@H](N)CO)C(=O)N[C@@H](CCCCN)C(=O)N[C@@H](C)C(=O)N[C@@H](CO)C(=O)N[C@@H](CCC(=O)O)C(=O)O
The description is as §2. As to conditions: Homo sapiens.

Compound in data set [13]: C[C@H](NC(=O)[C@@H](NC(=O)[C@H](CCC(N)=O)NC(=O)[C@@H](N)CCCCN)[C@@H](C)O)C(=O)N[C@@H](CCCNC(=N)N)C(=O)N[C@@H](CCCCNC(=O)CCCC[C@@H]1SC[C@@H]2NC(=O)N[C@@H]21)C(=O)N[C@@H](CO)C(=O)N[C@H](C(=O)NCC(=O)NCC(=O)O)[C@@H](C)O
The data set is described as §2. As to conditions: Homo sapiens.

Turning to H-SYLGSK(Ac)NIKASE-OH, the Ratio in data set [1] was 0.0064 s⁻¹ M⁻¹.
On to H-EIETDK(Ac)ATIG-OH, for which, in data set [1], the Ratio is 0.2 s⁻¹ M⁻¹.
Regarding H-KQTARK(Ac)STGG-OH, in data set [1], the Ratio was 0.083 s⁻¹ M⁻¹.
Turning to `CC(C)C[C@H](NC(=O)[C@@H](NC(=O)CN)C(C)C)C(=O)N[C@@H](CCCCNC(=O)CCCCC1CCSS1)C(=O)N[C@@H](CCC(=O)O)C(=O)N[C@@H](Cc1ccc(O)cc1)C(=O)NCC(=O)N[C@H](C(=O)O)C(C)C` (stereo partly drawn) (H-GVLK(Lipoyl(6ξ))EYGV-OH), in [2], the Ratio was 170 s⁻¹ M⁻¹.
With `CC[C@H](C)[C@H](NC(=O)[C@@H](NC(=O)[C@H](C)NC(=O)[C@H](CCCCNC(=O)CCCCC1CCSS1)NC(=O)[C@H](CC(=O)O)NC(=O)[C@@H](NC(=O)[C@H](CCC(=O)O)NC(=O)[C@@H](NC(=O)[C@@H](N)CCC(=O)O)[C@@H](C)CC)[C@@H](C)O)[C@@H](C)O)C(=O)NCC(=O)O` (stereo partly drawn) (H-EIETDK(Lipoyl(6ξ))ATIG-OH), in [1], the Ratio was 7.65 s⁻¹ M⁻¹.
For the molecule `C[C@H](NC(=O)[C@@H](NC(=O)[C@H](CCC(N)=O)NC(=O)[C@@H](N)CCCCN)[C@@H](C)O)C(=O)N[C@@H](CCCNC(=N)N)C(=O)N[C@@H](CCCCNC(=O)CCCCC1CCSS1)C(=O)N[C@@H](CO)C(=O)N[C@H](C(=O)NCC(=O)NCC(=O)O)[C@@H](C)O` (stereo partly drawn) (H-KQTARK(Lipoyl(6ξ))STGG-OH), the Ratio in data set [1] is 2.3 s⁻¹ M⁻¹.
Take H-KQLATK(Ac)AARKS-OH: in data set [3], the Ratio came out at 3130 s⁻¹ M⁻¹.
As for H-GVLK(Ac)EYGV-OH, the Ratio in data set [2] is 3.7 s⁻¹ M⁻¹.
With `C[C@H](NC(=O)[C@@H](NC(=O)[C@H](CCC(N)=O)NC(=O)[C@@H](N)CCCCN)[C@@H](C)O)C(=O)N[C@@H](CCCNC(=N)N)C(=O)N[C@@H](CCCCNC(=O)CCCC[C@@H]1SC[C@@H]2NC(=O)N[C@@H]21)C(=O)N[C@@H](CO)C(=O)N[C@H](C(=O)NCC(=O)NCC(=O)O)[C@@H](C)O` (H-KQTARK(Biotin)STGG-OH), the Ratio in [1] is 0.74 s⁻¹ M⁻¹.
Regarding `CC(C)C[C@H](NC(=O)[C@@H](NC(=O)CN)C(C)C)C(=O)N[C@@H](CCCCNC(=O)CC(C)(O)CC(=O)O)C(=O)N[C@@H](CCC(=O)O)C(=O)N[C@@H](Cc1ccc(O)cc1)C(=O)NCC(=O)N[C@H](C(=O)O)C(C)C` (stereo partly drawn) (H-GVLK(X2)EYGV-OH), the Ratio in data set [2] amounted to 546 s⁻¹ M⁻¹.
Still for that read-out and setting: in the case of `CC(C)C[C@H](NC(=O)[C@@H](NC(=O)CN)C(C)C)C(=O)N[C@@H](CCCCNC(=O)CC(C)(C)C(=O)O)C(=O)N[C@@H](CCC(=O)O)C(=O)N[C@@H](Cc1ccc(O)cc1)C(=O)NCC(=O)N[C@H](C(=O)O)C(C)C` (H-GVLK(X1)EYGV-OH) it was 412 s⁻¹ M⁻¹.

B1: NAD-dependent protein lipoamidase sirtuin-4, mitochondrial (Homo sapiens), Q9Y6E7 (protein)
chain: MKMSFALTFRSAKGRWIANPSQPCSKASIGLFVPASPPLDPEKVKELQRFITLSKRLLVMTGAGISTESGIPDYRSEKVGLYARTDRRPIQHGDFVRSAPIRQRYWARNFVGWPQFSSHQPNPAHWALSTWEKLGKLYWLVTQNVDALHTKAGSRRLTELHGCMDRVLCLDCGEQTPRGVLQERFQVLNPTWSAEAHGLAPDGDVFLSEEQVRSFQVPTCVQCGGHLKPDVVFFGDTVNPDKVDFVHKRVKEADSLLVVGSSLQVYSGYRFILTAWEKKLPIAILNIGPTRSDDLACLKLNSRCGELLPLIDPC
As a reminder, the Km is the substrate concentration at which the rate is half of its maximum. As a reminder, the kcat is the maximal rate divided by the concentration of active sites. Consider B1, for which the Km in data set [4] was 9.7 µM; in data set [5] it was 2340 µM; in data set [6], 10.1 µM; in data set [7], 17.7 µM; in data set [8] it was 814 µM; in [9] it was 239 µM. The Km in [10] is greater than 2500 µM; in [11], greater than 2500 µM; in data set [12] it was greater than 2500 µM; in data set [13] it was 719 µM. Also, the kcat in data set [4] was found to be 0.0053 s⁻¹; in data set [5], 0.0087 s⁻¹; in data set [6] it was 0.0017 s⁻¹; in [7], 0.0073 s⁻¹; in [8], 0.0019 s⁻¹; in [9], 0.0018 s⁻¹. Besides, the kcat in data set [13] amounted to 0.0005 s⁻¹.
